T1: DLG3_3, Q92796
T1 sequence (Q92796 374-475, limits assumed, looked up): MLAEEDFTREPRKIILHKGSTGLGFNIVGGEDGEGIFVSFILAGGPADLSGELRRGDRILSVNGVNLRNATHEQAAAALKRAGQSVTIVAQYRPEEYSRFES

T2: SNTG2, Q9NY99
T2 sequence (Q9NY99 68-166, limits assumed, looked up): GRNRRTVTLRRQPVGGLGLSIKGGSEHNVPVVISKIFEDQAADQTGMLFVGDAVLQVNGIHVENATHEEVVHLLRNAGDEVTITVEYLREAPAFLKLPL

T3: DFNB31_1, Q9P202
T3 sequence (Q9P202 135-233, limits assumed, looked up): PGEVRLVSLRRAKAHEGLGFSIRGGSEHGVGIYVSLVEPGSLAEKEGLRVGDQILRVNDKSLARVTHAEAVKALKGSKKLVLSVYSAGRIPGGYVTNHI

T4: DVL3, Q92997
T4 sequence (Q92997 244-331, limits assumed, looked up): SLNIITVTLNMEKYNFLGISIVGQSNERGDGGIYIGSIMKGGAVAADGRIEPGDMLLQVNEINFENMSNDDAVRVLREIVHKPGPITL

T5: SNTA1, Q13424
T5 sequence (Q13424 82-180, limits assumed, looked up): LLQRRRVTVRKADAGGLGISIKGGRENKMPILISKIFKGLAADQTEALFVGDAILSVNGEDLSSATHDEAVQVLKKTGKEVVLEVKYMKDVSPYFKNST

T6: LIN7B, Q9HAP6
T6 sequence (Q9HAP6 88-185, limits assumed, looked up): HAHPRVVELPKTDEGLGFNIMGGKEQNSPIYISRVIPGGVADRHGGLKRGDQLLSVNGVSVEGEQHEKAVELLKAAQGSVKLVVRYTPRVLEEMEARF

T7: TIAM2, Q8IVF5
T7 sequence (Q8IVF5 885-986, limits assumed, looked up): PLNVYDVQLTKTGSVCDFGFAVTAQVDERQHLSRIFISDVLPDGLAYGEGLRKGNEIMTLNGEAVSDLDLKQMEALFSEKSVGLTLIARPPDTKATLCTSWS

T8: HTRA4, P83105
T8 sequence (P83105 378-476, limits assumed, looked up): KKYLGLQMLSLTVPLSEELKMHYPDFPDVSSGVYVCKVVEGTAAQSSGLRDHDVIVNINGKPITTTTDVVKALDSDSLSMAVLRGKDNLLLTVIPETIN

T9: MPDZ_10, O75970
T9 sequence (O75970 1624-1722, limits assumed, looked up): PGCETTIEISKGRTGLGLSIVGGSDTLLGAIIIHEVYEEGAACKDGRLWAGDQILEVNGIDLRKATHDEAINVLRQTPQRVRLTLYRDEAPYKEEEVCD

T10: DFNB31_2, Q9P202
T10 sequence (Q9P202 274-371, limits assumed, looked up): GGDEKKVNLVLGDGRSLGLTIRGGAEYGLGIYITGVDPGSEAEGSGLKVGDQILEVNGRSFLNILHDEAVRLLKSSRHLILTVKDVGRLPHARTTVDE

T11: SNTG1, Q9NSN8
T11 sequence (Q9NSN8 52-150, limits assumed, looked up): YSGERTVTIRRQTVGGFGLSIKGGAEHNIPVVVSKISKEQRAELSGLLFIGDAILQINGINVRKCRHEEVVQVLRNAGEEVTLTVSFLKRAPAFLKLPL

T12: NHERF3_1, Q5T2W1
T12 sequence (Q5T2W1 4-100, limits assumed, looked up): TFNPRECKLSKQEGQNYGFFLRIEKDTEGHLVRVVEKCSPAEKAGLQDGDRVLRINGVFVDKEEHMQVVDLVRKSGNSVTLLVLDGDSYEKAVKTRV

T13: RAPGEF6, Q8TEU7
T13 sequence (Q8TEU7 525-625, limits assumed, looked up): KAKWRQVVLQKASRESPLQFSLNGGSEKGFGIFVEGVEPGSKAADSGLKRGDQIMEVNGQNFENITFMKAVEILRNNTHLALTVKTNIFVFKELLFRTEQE


molecular target: T1, DLG3_3, Q92796; assay: holdup assay; design: key: below the threshold = too weak to quantify, mostly under pKd 3.1 to 4; details: plain residues with an end cap or a label only (N-terminal biotin on a linker: ado-ado)

pKd | Binder
below the threshold | PKSNSSKEYV [CLDN7, O95471]
below the threshold | QRYPGNQTTC [CCL24, O00175]

molecular target: NOS1, P29475; assay: holdup assay; design: key: below the threshold = too weak to quantify, mostly under pKd 3.1 to 4; details: plain residues with an end cap or a label only (N-terminal biotin on a linker: ado-ado)
Sequence (P29475 9-101): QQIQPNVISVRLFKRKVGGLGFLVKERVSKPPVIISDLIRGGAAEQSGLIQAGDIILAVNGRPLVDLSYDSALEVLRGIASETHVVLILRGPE

pKd | Binder
3.57 | PKSNSSKEYV [CLDN7, O95471]
below the threshold | QRYPGNQTTC [CCL24, O00175]

molecular target: T2, SNTG2, Q9NY99; assay: holdup assay; design: key: below the threshold = too weak to quantify, mostly under pKd 3.1 to 4; details: plain residues with an end cap or a label only (N-terminal biotin on a linker: ado-ado)

pKd | Binder
below the threshold | PKSNSSKEYV [CLDN7, O95471]
below the threshold | QRYPGNQTTC [CCL24, O00175]

molecular target: Inadl_8, Q8NI35; assay: holdup assay; design: key: below the threshold = too weak to quantify, mostly under pKd 3.1 to 4; details: plain residues with an end cap or a label only (N-terminal biotin on a linker: ado-ado)
Sequence (Q8NI35 1425-1530): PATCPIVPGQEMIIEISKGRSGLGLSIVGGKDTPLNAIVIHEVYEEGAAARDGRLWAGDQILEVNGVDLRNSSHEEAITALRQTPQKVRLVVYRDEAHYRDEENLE

pKd | Binder
below the threshold | PKSNSSKEYV [CLDN7, O95471]
below the threshold | QRYPGNQTTC [CCL24, O00175]

molecular target: FRMPD2_3, Q68DX3; assay: holdup assay; design: key: below the threshold = too weak to quantify, mostly under pKd 3.1 to 4; details: plain residues with an end cap or a label only (N-terminal biotin on a linker: ado-ado)
Sequence (Q68DX3 1073-1166): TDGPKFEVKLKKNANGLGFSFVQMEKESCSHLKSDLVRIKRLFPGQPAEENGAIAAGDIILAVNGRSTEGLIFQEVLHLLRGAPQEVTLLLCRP

pKd | Binder
below the threshold | PKSNSSKEYV [CLDN7, O95471]
below the threshold | QRYPGNQTTC [CCL24, O00175]

molecular target: T3, DFNB31_1, Q9P202; assay: holdup assay; design: key: below the threshold = too weak to quantify, mostly under pKd 3.1 to 4; details: plain residues with an end cap or a label only (N-terminal biotin on a linker: ado-ado)

pKd | Binder
below the threshold | PKSNSSKEYV [CLDN7, O95471]
below the threshold | QRYPGNQTTC [CCL24, O00175]

molecular target: T4, DVL3, Q92997; assay: holdup assay; design: key: below the threshold = too weak to quantify, mostly under pKd 3.1 to 4; details: plain residues with an end cap or a label only (N-terminal biotin on a linker: ado-ado)

pKd | Binder
below the threshold | PKSNSSKEYV [CLDN7, O95471]
below the threshold | QRYPGNQTTC [CCL24, O00175]

molecular target: PARD3_3, Q8TEW0; assay: holdup assay; design: key: below the threshold = too weak to quantify, mostly under pKd 3.1 to 4; details: plain residues with an end cap or a label only (N-terminal biotin on a linker: ado-ado)
Sequence (Q8TEW0 582-685): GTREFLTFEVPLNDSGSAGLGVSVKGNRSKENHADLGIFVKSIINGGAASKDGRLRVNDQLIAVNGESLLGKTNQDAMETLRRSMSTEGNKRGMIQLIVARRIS

pKd | Binder
below the threshold | PKSNSSKEYV [CLDN7, O95471]
below the threshold | QRYPGNQTTC [CCL24, O00175]

molecular target: IL16_4, Q14005; assay: holdup assay; design: key: below the threshold = too weak to quantify, mostly under pKd 3.1 to 4; details: plain residues with an end cap or a label only (N-terminal biotin on a linker: ado-ado)
Sequence (Q14005 1229-1329): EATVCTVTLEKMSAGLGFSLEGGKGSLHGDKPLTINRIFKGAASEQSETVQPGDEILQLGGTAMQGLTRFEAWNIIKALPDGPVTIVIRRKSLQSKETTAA

pKd | Binder
below the threshold | PKSNSSKEYV [CLDN7, O95471]
below the threshold | QRYPGNQTTC [CCL24, O00175]

molecular target: T5, SNTA1, Q13424; assay: holdup assay; design: key: below the threshold = too weak to quantify, mostly under pKd 3.1 to 4; details: plain residues with an end cap or a label only (N-terminal biotin on a linker: ado-ado)

pKd | Binder
below the threshold | PKSNSSKEYV [CLDN7, O95471]
below the threshold | QRYPGNQTTC [CCL24, O00175]

molecular target: T6, LIN7B, Q9HAP6; assay: holdup assay; design: key: below the threshold = too weak to quantify, mostly under pKd 3.1 to 4; details: plain residues with an end cap or a label only (N-terminal biotin on a linker: ado-ado)

pKd | Binder
below the threshold | PKSNSSKEYV [CLDN7, O95471]
3.85 | QRYPGNQTTC [CCL24, O00175]

molecular target: SCRIB_1, Q14160; assay: holdup assay; design: key: below the threshold = too weak to quantify, mostly under pKd 3.1 to 4; details: plain residues with an end cap or a label only (N-terminal biotin on a linker: ado-ado)
Sequence (Q14160 718-814): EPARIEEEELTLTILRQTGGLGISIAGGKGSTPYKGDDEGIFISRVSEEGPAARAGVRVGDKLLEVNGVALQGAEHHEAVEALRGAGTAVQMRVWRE

pKd | Binder
below the threshold | PKSNSSKEYV [CLDN7, O95471]
3.92 | QRYPGNQTTC [CCL24, O00175]

molecular target: T7, TIAM2, Q8IVF5; assay: holdup assay; design: key: below the threshold = too weak to quantify, mostly under pKd 3.1 to 4; details: plain residues with an end cap or a label only (N-terminal biotin on a linker: ado-ado)

pKd | Binder
below the threshold | PKSNSSKEYV [CLDN7, O95471]
4.09 | QRYPGNQTTC [CCL24, O00175]

molecular target: T8, HTRA4, P83105; assay: holdup assay; design: key: below the threshold = too weak to quantify, mostly under pKd 3.1 to 4; details: plain residues with an end cap or a label only (N-terminal biotin on a linker: ado-ado)

pKd | Binder
below the threshold | PKSNSSKEYV [CLDN7, O95471]
below the threshold | QRYPGNQTTC [CCL24, O00175]

molecular target: T9, MPDZ_10, O75970; assay: holdup assay; design: key: below the threshold = too weak to quantify, mostly under pKd 3.1 to 4; details: plain residues with an end cap or a label only (N-terminal biotin on a linker: ado-ado)

pKd | Binder
below the threshold | PKSNSSKEYV [CLDN7, O95471]
below the threshold | QRYPGNQTTC [CCL24, O00175]

molecular target: T10, DFNB31_2, Q9P202; assay: holdup assay; design: key: below the threshold = too weak to quantify, mostly under pKd 3.1 to 4; details: plain residues with an end cap or a label only (N-terminal biotin on a linker: ado-ado)

pKd | Binder
below the threshold | PKSNSSKEYV [CLDN7, O95471]
below the threshold | QRYPGNQTTC [CCL24, O00175]

molecular target: T11, SNTG1, Q9NSN8; assay: holdup assay; design: key: below the threshold = too weak to quantify, mostly under pKd 3.1 to 4; details: plain residues with an end cap or a label only (N-terminal biotin on a linker: ado-ado)

pKd | Binder
below the threshold | PKSNSSKEYV [CLDN7, O95471]
below the threshold | QRYPGNQTTC [CCL24, O00175]

molecular target: T12, NHERF3_1, Q5T2W1; assay: holdup assay; design: key: below the threshold = too weak to quantify, mostly under pKd 3.1 to 4; details: plain residues with an end cap or a label only (N-terminal biotin on a linker: ado-ado)

pKd | Binder
below the threshold | PKSNSSKEYV [CLDN7, O95471]
below the threshold | QRYPGNQTTC [CCL24, O00175]

molecular target: IL16_1, Q14005; assay: holdup assay; design: key: below the threshold = too weak to quantify, mostly under pKd 3.1 to 4; details: plain residues with an end cap or a label only (N-terminal biotin on a linker: ado-ado)
Sequence (Q14005 210-306): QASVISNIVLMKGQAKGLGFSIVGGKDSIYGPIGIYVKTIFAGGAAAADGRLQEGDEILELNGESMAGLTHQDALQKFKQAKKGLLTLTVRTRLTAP

pKd | Binder
below the threshold | PKSNSSKEYV [CLDN7, O95471]
below the threshold | QRYPGNQTTC [CCL24, O00175]

molecular target: T13, RAPGEF6, Q8TEU7; assay: holdup assay; design: key: below the threshold = too weak to quantify, mostly under pKd 3.1 to 4; details: plain residues with an end cap or a label only (N-terminal biotin on a linker: ado-ado)

pKd | Binder
below the threshold | PKSNSSKEYV [CLDN7, O95471]
3.58 | QRYPGNQTTC [CCL24, O00175]

molecular target: GORASP2, Q9H8Y8; assay: holdup assay; design: key: below the threshold = too weak to quantify, mostly under pKd 3.1 to 4; details: plain residues with an end cap or a label only (N-terminal biotin on a linker: ado-ado)

pKd | Binder
3.6 | PKSNSSKEYV [CLDN7, O95471]
below the threshold | QRYPGNQTTC [CCL24, O00175]

molecular target: LIMK2, P53671; assay: holdup assay; design: key: below the threshold = too weak to quantify, mostly under pKd 3.1 to 4; details: plain residues with an end cap or a label only (N-terminal biotin on a linker: ado-ado)
Sequence (P53671 143-248): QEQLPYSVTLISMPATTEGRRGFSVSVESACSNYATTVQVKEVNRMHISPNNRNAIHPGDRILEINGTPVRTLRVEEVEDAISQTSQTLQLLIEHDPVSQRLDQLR

pKd | Binder
below the threshold | PKSNSSKEYV [CLDN7, O95471]
below the threshold | QRYPGNQTTC [CCL24, O00175]

molecular target: GRIP2_5, Q9C0E4; assay: holdup assay; design: key: below the threshold = too weak to quantify, mostly under pKd 3.1 to 4; details: plain residues with an end cap or a label only (N-terminal biotin on a linker: ado-ado)
Sequence (Q9C0E4 544-642): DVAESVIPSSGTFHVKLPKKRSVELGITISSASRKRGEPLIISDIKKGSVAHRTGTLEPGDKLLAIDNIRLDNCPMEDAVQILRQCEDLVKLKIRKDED

pKd | Binder
below the threshold | PKSNSSKEYV [CLDN7, O95471]
below the threshold | QRYPGNQTTC [CCL24, O00175]

molecular target: DLG5_1, Q8TDM6; assay: holdup assay; design: key: below the threshold = too weak to quantify, mostly under pKd 3.1 to 4; details: plain residues with an end cap or a label only (N-terminal biotin on a linker: ado-ado)
Sequence (Q8TDM6 617-713): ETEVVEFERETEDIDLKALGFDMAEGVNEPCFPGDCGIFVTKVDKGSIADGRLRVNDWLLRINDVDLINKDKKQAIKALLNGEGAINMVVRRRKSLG

pKd | Binder
below the threshold | PKSNSSKEYV [CLDN7, O95471]
below the threshold | QRYPGNQTTC [CCL24, O00175]

molecular target: PDLIM1, O00151; assay: holdup assay; design: key: below the threshold = too weak to quantify, mostly under pKd 3.1 to 4; details: plain residues with an end cap or a label only (N-terminal biotin on a linker: ado-ado)
Sequence (O00151 1-87): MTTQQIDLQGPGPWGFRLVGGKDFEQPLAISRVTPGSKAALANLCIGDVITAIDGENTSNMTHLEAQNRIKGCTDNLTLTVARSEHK

pKd | Binder
below the threshold | PKSNSSKEYV [CLDN7, O95471]
below the threshold | QRYPGNQTTC [CCL24, O00175]
